Consider 6 substances from patent US20170342107A1.

Assay [1] deals with mouse melanocortin-3 receptor (mouse) (UniProt P33033). The assay is described as follows: cell-based or functional assay.
Assay [2] concerns the target mouse melanocortin-4 receptor (mouse) (UniProt P56450). The assay is described as follows: cell-based or functional assay.
Assay [3] concerns the target mouse melanocortin-3 receptor (mouse) (UniProt P33033). The assay is described as follows: 125I-NDP-MSH competitive displacement, HEK293 cells stably expressing mMC3R.
Assay [4] deals with mouse melanocortin-4 receptor (mouse) (UniProt P56450). Kind of assay: 125I-NDP-MSH competitive displacement, HEK293 cells stably expressing mMC4R.
Sequence of mouse melanocortin-4 receptor (mouse) (P56450 whole entry): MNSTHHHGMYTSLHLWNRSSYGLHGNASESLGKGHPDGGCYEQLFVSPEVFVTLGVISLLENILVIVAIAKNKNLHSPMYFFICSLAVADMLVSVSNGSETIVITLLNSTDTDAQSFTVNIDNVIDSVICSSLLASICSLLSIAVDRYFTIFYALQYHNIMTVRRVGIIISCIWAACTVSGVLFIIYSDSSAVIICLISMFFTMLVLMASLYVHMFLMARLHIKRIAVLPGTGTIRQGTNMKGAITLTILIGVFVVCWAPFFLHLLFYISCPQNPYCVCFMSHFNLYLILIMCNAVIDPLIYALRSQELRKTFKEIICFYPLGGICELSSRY
The target in assay [5] is mouse melanocortin-3 receptor (mouse) (UniProt P33033). The assay is described as follows: 125I-NDP-MSH competitive displacement, HEK293 cells stably expressing mMC3R; negative = more potent than control.
For assay [6], the target named is mouse melanocortin-4 receptor (mouse) (UniProt P56450). Kind of assay: 125I-NDP-MSH competitive displacement, HEK293 cells stably expressing mMC4R; negative = more potent than control.
Assay [7] has the same target. The assay is described as follows: 125I-NDP-MSH competitive displacement, HEK293 cells stably expressing mMC4R; here negative = weaker binder than SKY4-48-1.

Sequence of mouse melanocortin-3 receptor (mouse) (P33033 whole entry): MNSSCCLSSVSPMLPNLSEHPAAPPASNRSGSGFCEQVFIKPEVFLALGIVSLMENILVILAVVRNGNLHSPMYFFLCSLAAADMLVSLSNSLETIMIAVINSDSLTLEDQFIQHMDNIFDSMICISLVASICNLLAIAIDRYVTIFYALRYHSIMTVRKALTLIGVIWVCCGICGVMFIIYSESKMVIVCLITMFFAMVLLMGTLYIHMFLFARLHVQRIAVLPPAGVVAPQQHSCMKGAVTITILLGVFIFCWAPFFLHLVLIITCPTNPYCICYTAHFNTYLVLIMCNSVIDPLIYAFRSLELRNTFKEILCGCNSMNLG

For the substance “SKY4-48-18, Ac-Arg-Arg-(pI)DPhe-Tic-NH2 (peptide)”, the results for the Agonist Activity EC50 in assay [1] and in assay [2] were 16 nM and > 100000 nM, respectively. In assay [2], this substance gave an Antagonist Activity K of 16 nM. Besides, the Antagonist Ki in assay [2] is 15 nM. Further, the values for the IC50 in assay [3] and in assay [4] were 550 nM and 13 nM, respectively. Further, the Fold Diff. (IC50 against SKY4-48-1) is -92 fold in assay [5] and -9 fold in assay [6].
Consider “SKY6-24-2, Ac-His-Arg-(pI)DPhe-Tic-NH2 (peptide)”, for which, in assay [1], the Agonist Activity EC50 stood at 40 nM and the fold increase in agonist potency against SKY5-146-7 came to 12 fold. In assay [2], the Agonist Activity EC50 was > 100000 nM, the Antagonist Activity K is 100 nM and the pA2 (antagonist) came out at 7 pA2. Moreover, the 50% inhibitory concentration (IC50) (usually the concentration that gives 50% inhibition) in assay [3] was found to be 975 nM. The substance further registered an IC50 in assay [4] of 83 nM. Further, the Fold Diff. (IC50 against SKY4-48-1) in assay [5] was -52 fold. The Fold Diff. (IC50 against SKY4-48-1) in assay [6] was 1 fold.
Take “SKY5-122-1, Ac-DTic-(pI)Phe-DArg-DHis-NH2 (peptide)”: in assay [1], the Agonist Activity EC50 was > 100000 nM, the Antagonist Activity K is 63 nM and the pA2 (antagonist) is 7.2 pA2. Also, in assay [2], the Agonist Activity, % stimulation relative to maximum worked out at 42 % @ 100 µM; the Agonist, % of NDP-MSH maximal response is 42 % @ 100 µM; the Antagonist Ki is > 3100 nM; the pA2 (antagonist) is 5.5 pA2. In assay [3], this substance yielded a Fold Diff. (IC50 against SKY4-48-1) of 64 fold and a concentration for half-maximal inhibition (IC50) of 800 nM. The substance further yielded an IC50 in assay [4] of 6700 nM. Further, in assay [7], the Fold Diff. (IC50 against SKY4-48-1) was -55 fold.
In turn, “SKY6-24-3, Ac-DNal(2')-Arg-(pI)DPhe-Tic-NH2 (peptide)” showed an Agonist, % of NDP-MSH maximal response in assay [2] of 32 % @ 100 µM. For the same substance, the IC50 is 420 nM in assay [3] and 43 nM in assay [4]. Moreover, the Fold Diff. (IC50 against SKY4-48-1) is -120 fold in assay [5] and -3 fold in assay [6].
“SKY4-48-42, Ac-Arg-Arg-(pI)DPhe-DNal(2')-NH2 (peptide)”: the Agonist Activity EC50 in assay [1] is 57 nM; in assay [2] it was > 100000 nM. Further, the Antagonist Activity K in assay [2] is 400 nM. Besides, the figures for the half-inhibitory concentration (IC50) in assay [3] and in assay [4] were 440 nM and 220 nM, respectively. Further, the Fold Diff. (IC50 against SKY4-48-1) in assay [5] was -115 fold; in assay [6], 2 fold.
Turning to “SKY4-48-23, Ac-Phe-Arg-(pI)DPhe-Tic-NH2 (peptide)”, the half-inhibitory concentration (IC50) in assay [3] amounted to 2500 nM; in assay [4] it was 135 nM. For the same substance, the Fold Diff. (IC50 against SKY4-48-1) in assay [5] was -20 fold; in assay [6], 1 fold.
